The text below walks through data of patent US20240034757A1 (OXFORD UNIVERSITY INNOVATION, published 2024).

The target of test [1] is T1, P1156_IXORI (Ixodes ricinus, UniProt V5HBW0 29-108).
T1 sequence: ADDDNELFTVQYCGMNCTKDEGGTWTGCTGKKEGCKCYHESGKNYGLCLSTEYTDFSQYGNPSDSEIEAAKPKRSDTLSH
Description: BLI. For orientation: In BLI a coated tip is dipped into the sample, and binding shifts an interference pattern.

Test [2] concerns the target T2, P1080_IXORI (Ixodes ricinus, UniProt A0A090XBL6 20-118). Description: BLI.
Test [3] concerns the target T3, P1095_IXORI (Ixodes ricinus, UniProt A0A0K8RCE3 24-112).
T3 sequence: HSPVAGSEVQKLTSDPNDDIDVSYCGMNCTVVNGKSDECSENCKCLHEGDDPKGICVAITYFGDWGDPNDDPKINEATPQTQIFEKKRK
Description: BLI.

The target of test [4] is T4, P1096_IXORI (Ixodes ricinus, UniProt A0A0K8RKE4 24-114).
T4 sequence: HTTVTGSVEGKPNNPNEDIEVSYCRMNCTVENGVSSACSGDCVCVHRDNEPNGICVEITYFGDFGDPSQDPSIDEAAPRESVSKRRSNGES
Briefly: BLI.

Test [5] addresses T5, P1127_IXORI (Ixodes ricinus, UniProt A0A0K8RJ67 29-108).
T5 sequence: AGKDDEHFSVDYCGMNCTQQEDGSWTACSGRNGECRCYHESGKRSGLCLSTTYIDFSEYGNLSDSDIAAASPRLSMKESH
Briefly: BLI.

Test [6] deals with T6, P1132_IXORI (Ixodes ricinus, UniProt V5GZ08 29-106).
T6 sequence: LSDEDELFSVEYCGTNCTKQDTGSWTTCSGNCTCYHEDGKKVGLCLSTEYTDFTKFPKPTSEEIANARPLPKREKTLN
Briefly: BLI.

In test [7] the target is T7, P1134_IXORI (Ixodes ricinus, UniProt A0A0K8RAI0 32-135).
T7 sequence: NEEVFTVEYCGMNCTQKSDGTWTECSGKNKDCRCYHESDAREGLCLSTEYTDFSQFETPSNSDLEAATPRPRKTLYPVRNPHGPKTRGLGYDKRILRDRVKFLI
Description: BLI.

Test [8] has as its target T8, P1166_IXORI (Ixodes ricinus, UniProt A0A0K8RE99 25-110).
T8 sequence: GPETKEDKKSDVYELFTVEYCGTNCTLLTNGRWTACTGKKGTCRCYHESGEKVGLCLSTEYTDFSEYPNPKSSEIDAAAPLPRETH
Description: BLI.

In test [9] the target is T9, P1168_IXORI (Ixodes ricinus, UniProt A0A0K8RCU3 25-106).
T9 sequence: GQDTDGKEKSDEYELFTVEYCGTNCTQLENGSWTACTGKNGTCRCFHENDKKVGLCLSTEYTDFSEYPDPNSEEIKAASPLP
Briefly: BLI.

The target of the next test is T10, CCL17_HUMAN (human, UniProt Q92583 24-94).
T10 sequence: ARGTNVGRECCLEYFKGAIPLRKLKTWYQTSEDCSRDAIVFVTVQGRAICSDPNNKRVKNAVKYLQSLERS
Briefly: yeast surface display FACS.

A further test concerns the target CCL20_HUMAN (human, UniProt P78556 27-96). Briefly: yeast surface display FACS.
In another test the target is T11, CXCL8_HUMAN (human, UniProt P10145 28-99).
T11 sequence: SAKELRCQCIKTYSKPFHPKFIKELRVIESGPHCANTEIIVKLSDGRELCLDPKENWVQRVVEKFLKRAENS
Briefly: yeast surface display FACS.

For test [10], the target named is T12, CCL5_HUMAN (human, UniProt P13501 24-91).
T12 sequence: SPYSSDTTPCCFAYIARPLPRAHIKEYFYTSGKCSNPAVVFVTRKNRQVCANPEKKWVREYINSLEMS
Description: yeast surface display FACS.

For another test, the target named is CCL11_HUMAN (human, UniProt P51671 24-97). Description: yeast surface display FACS.
The next test concerns the target T13, CCL18_HUMAN (human, UniProt P55774 21-89).
T13 sequence: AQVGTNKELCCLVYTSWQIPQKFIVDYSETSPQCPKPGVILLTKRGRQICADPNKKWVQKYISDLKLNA
Briefly: yeast surface display FACS.

For a further test, the target named is CXCL12_HUMAN (human, UniProt P48061 22-89). Description: yeast surface display FACS.
Test [11] has as its target T12, CCL5_HUMAN. Briefly: yeast surface display FACS. The source holds these as a separate data set.
Test [12] addresses T2, P1080_IXORI. Description: BLI [Cont.].
The target of test [13] is T3, P1095_IXORI. Description: BLI [Cont.].
Test [14] concerns the target T4, P1096_IXORI. Description: BLI [Cont.].
Test [15] deals with T5, P1127_IXORI. Briefly: BLI [Cont.].
In another test the target is T14, P1128_IXORI (Ixodes ricinus, UniProt A0A0K8R6B3 19-90).
T14 sequence: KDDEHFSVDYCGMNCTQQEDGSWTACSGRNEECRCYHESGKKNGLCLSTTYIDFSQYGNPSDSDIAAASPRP
Description: BLI [Cont.].

In test [16] the target is T6, P1132_IXORI. Briefly: BLI [Cont.].
Test [17] has as its target T7, P1134_IXORI. Description: BLI [Cont.].
A further test deals with T15, P1162_IXORI (Ixodes ricinus, UniProt A0A0K8RDJ1 29-99).
T15 sequence: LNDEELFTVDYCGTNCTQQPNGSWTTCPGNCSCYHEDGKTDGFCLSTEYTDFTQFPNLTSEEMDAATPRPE
Description: BLI [Cont.].

Test [18] deals with T8, P1166_IXORI. Briefly: BLI [Cont.].
Test [19] has as its target T9, P1168_IXORI. Briefly: BLI [Cont.].
Another test addresses T16, P1170_IXORI (Ixodes ricinus, UniProt A0A0K8RD51 29-102).
T16 sequence: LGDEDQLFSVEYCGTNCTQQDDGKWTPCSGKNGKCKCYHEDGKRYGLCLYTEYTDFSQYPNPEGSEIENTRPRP
Briefly: BLI [Cont.].

The next test addresses T17, P1172_IXORI (Ixodes ricinus, UniProt V5I2G9 24-94).
T17 sequence: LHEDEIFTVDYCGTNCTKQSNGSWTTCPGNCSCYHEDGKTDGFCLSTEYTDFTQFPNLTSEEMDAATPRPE
Briefly: BLI [Cont.].

The target of another test is T18, P1174_IXORI (Ixodes ricinus, UniProt V5I3C5 28-104).
T18 sequence: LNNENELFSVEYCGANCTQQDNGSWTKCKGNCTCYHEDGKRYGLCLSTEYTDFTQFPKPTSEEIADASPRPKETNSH
Briefly: BLI [Cont.].

A further test deals with T19, P1229_IXORI (Ixodes ricinus, UniProt A0A0K8R4R9 32-108).
T19 sequence: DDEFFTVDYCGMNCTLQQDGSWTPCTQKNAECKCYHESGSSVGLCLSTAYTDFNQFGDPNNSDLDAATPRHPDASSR
Briefly: BLI [Cont.].

The target in test [20] is T1, P1156_IXORI. Briefly: BLI [Cont.) C].
The target in a further test is T20, CCL16_HUMAN (human, UniProt O15467 24-120).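 Further: biolayer interferometry on an Octet system: chemokines at several doses tested against tick chemokine-binding proteins, association, equilibrium and dissociation curves fitted to derive Kd.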
T20 sequence: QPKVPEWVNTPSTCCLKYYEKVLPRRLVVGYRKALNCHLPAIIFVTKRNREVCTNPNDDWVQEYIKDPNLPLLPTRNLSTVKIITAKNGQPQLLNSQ
Briefly: BLI.

Read-outs that look alike come from different tables or passages of the source.

What is called Kd is the free concentration of one partner at which half of the binding sites on the other are occupied at equilibrium, for simple one-to-one binding.

Sequence of CCL20_HUMAN (P78556 27-96 limits assumed): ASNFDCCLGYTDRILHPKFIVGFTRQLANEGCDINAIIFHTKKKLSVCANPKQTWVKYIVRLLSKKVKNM
T2 sequence (A0A090XBL6 20-118): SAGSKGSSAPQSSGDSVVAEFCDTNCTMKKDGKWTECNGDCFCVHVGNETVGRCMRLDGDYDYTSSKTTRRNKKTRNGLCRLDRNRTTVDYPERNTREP
Sequence of CXCL12_HUMAN (P48061 22-89 limits assumed): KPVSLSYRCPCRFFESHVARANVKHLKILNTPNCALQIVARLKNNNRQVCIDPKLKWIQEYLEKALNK
Sequence of CCL11_HUMAN (P51671 24-97 limits assumed): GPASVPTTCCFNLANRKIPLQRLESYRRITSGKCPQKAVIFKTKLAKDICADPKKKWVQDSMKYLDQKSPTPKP

B1: CXCL14_HUMAN (ligand)
chain: SKCKCSRKGPKIRYSDVKKLEMKPKYPHCEEKMVIITTKSVSRYRGQEHCLHPKLQSTKRFIKWYNAWNEKRRVYEE
Consider B1, for which the binding result in the test with P1156_IXORI [1], with P1080_IXORI [2], in the test with P1095_IXORI [3], with P1096_IXORI [4], with P1127_IXORI [5] and in the test with P1132_IXORI [6] was “no binding (tested: 300 nM)” each time. Further, the binding result in the test with P1134_IXORI [7], with P1166_IXORI [8] and with P1168_IXORI [9] was “no binding (tested: 300 nM)” throughout.

B2: P1252_AMBAM (other)
chain: RGGAASVPANASIPGCGDAQTTPAAPEDQPKHYVVYRDGNGCEVKIIGTWMTTEDYNCLPDTFRKNRAPHGKVKLPASCKKTCGNAVQNLKDGTPCRKVFGDLGRRRNLIKNGCLVGACQSGLCVSGNRTISCYIPPNSTDTRATPGSFAE
Regarding B2, the binding result with CCL17_HUMAN, with CCL20_HUMAN and in the test with CXCL8_HUMAN was “binds” in each case.

B3: P1215_AMBPA (other)
chain: KTDTKNAAGELPPKVVIPGCEDPATTKAPLPDEPPYYGITIDKDGCQRKVLGSSQRQQRKVQNGRKLDGKKRGRRPVFVDLELTVDCKRKCNGTYSQLPDGENCLVSDGYPYGRWGTIKGGCYQGNCSSGQCHRGEKKVNCYLPKNITNDVPKSLNLAE
On to B3, for which the binding result with CCL5_HUMAN [10], with CCL11_HUMAN, with CCL18_HUMAN and in the test with CXCL12_HUMAN was “binds” each time.

B4: P993_AMBPA (other)
chain: HRHYDPNEPCLIAGLKTPRDALPAGCRYDCMIKKNQKLRDGLLCLDVPEKVVKRMVNYLNYSCPLGTCRKGICKRKHRNVRCQKYPVFYMSPPK
Consider B4, for which the binding result with CCL5_HUMAN [11], in the test with CCL17_HUMAN and with CCL20_HUMAN was “binds” in each case.

B5: CXCL7_HUMAN (ligand)
chain: AELRCMCIKTTSGIHPKNIQSLEVIGKGTHCNQVEVIATLKDGRKICLDPDAPRIKKIVQKKLAGDESAD
For B5, the binding result in the test with P1080_IXORI [12], with P1095_IXORI [13], with P1096_IXORI [14], with P1127_IXORI [15], in the test with P1128_IXORI and with P1132_IXORI [16] was “no binding (tested: 300 nM)” each time. Further, the binding result in the test with P1134_IXORI [17], in the test with P1162_IXORI, with P1166_IXORI [18], with P1168_IXORI [19], with P1170_IXORI and with P1172_IXORI was “no binding (tested: 300 nM)” throughout. In addition, the binding result with P1174_IXORI, with P1229_IXORI and with P1156_IXORI [20] was “no binding (tested: 300 nM)” throughout.

B6: P974_AMBCA (other)
chain: ENTQQEEQDYDYGTDTCPFPVLANKTNKAKFVGCHQKCNGGDQKLTDGTACYVVERKVWDRMTPMLWYECPLGECKNGVCEDLRKKEDCRKGNGEEK
B6: binding with CCL16_HUMAN was characterised by a dissociation constant (Kd) of 11 nM.

B7: P546_AMBCA (other)
chain: ENTQQEEEDYDYGTDTCPFPVLANKTNKAKFVGCHQKCNGGDQKLTDGTACYVVERKVWDRMTPMLWYSCPLGECKNGVCEDLRKKEECRKGNGEEK
B7 yielded a Kd with CCL16_HUMAN of 6.7 nM.

B8: P1015_AMBCA (other)
chain: EEAPGPAPGCGEPEPTPPKPRRHGIVTNVNSCNSTILVWNGKEFPALCKVRCPHKSYRVSDFEPCLKFTNRRFLQERKDETPYKCKLGFCRHGTCITSEHSRKVPCKVPADRLDPSE
In the case of B8, the binding result with CCL20_HUMAN and with CXCL8_HUMAN was “binds” throughout.
